Reference: CN110563849A (ANHUI RUBIOX VISION BIOTECHNOLOGY CO LTD, dated 2019)

Target: T1, PD-1-mFc (人PD-1胞外区加Fc纯化标签) (human, UniProt Q15116 25-170)
T1 construct: extracellular domain;domain: Fc; also called PD-1抗原; PD-1蛋白; not shown: mFc, Fc purification tag (mouse Fc)
Test: competition ELISA, PD-1-mFc coated, competitor PDL-1-hFc

T1 sequence (Q15116 25-170): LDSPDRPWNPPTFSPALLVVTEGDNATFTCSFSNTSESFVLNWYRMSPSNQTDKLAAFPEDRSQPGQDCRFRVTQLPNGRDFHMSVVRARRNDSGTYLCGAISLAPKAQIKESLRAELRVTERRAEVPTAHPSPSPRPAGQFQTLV

binding result: binds
B1: 双特异性抗体Vs3P4 (dsFv-VEGF-linker-PD1-H chain结构) (bispecific antibody, human IgG4 S228P, kappa)
heavy: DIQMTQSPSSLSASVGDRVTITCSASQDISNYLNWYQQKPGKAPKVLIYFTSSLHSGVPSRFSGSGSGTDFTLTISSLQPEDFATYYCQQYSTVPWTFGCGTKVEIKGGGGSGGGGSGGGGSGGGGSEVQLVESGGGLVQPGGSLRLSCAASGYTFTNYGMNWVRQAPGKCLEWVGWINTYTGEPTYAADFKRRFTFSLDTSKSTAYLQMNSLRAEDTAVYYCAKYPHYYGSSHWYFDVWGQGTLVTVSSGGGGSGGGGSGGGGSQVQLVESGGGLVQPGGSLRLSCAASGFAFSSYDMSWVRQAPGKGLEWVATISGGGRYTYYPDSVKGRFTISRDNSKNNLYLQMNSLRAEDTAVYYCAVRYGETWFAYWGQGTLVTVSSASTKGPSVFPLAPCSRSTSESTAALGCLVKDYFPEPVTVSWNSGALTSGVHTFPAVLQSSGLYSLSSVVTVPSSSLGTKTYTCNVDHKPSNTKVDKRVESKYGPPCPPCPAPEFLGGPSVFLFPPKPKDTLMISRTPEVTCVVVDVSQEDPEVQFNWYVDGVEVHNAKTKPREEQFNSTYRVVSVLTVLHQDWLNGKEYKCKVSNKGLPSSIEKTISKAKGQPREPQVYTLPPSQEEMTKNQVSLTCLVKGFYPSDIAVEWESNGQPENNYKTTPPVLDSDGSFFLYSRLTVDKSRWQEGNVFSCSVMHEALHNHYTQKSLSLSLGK
light: DIQMTQSPSSLSASVGDRVTITCRASQDINTYLAWFQQKPGKAPKSLIYRANRLVSGVPSRFSGSGSGTDFTLTISSLQPEDMATYYCLQYDEFPLTFGAGTKLELKRTVAAPSVFIFPPSDEQLKSGTASVVCLLNNFYPREAKVQWKVDNALQSGNSQESVTEQDSKDSTYSLSSTLTLSKADYEKHKVYACEVTHQGLSSPVTKSFNRGEC
notes: Expressed in 293F cells; also called 抗VEGF-抗PD1双特异性抗体
